The values below come from patent publication US20210156867A1 (YEDA RESEARCH AND DEVELOPMENT, published 2021).

Experiment [1] has as its target T1, mouse recombinant His-calmodulin, calcium-bound (mouse, UniProt P0DP26 1-149).
T1 construct: also called His-CaM(Ca^2+); His-CaM(Ca^+2)
Nature of the experiment: SPR, His-CaM immobilised on CM5 chip, analyte pre-incubated with 0.3 mM CaCl2. (Surface plasmon resonance follows binding to a sensor surface in real time, without labels.)

For experiment [2], the target named is T2, recombinant human B-cell lymphoma protein 2 alpha His-Tag (Bcl-2) (human, UniProt P10415 1-211, limits assumed).
T2 construct: In the assay it was in complex with the Ni-NTA sensor compound 5; also called His-Bcl-2; not shown: His-tag
T2 sequence (P10415 1-211 limits assumed): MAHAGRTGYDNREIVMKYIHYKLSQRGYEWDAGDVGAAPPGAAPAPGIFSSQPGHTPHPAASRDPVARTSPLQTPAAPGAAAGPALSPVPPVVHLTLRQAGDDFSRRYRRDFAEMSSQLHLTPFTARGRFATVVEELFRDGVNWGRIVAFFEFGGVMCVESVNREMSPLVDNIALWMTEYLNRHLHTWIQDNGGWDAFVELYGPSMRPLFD
Nature of the experiment: fluorescence displacement assay: emission of the His-Bcl-2-compound 5 sensor complex (200 nM) after adding 800 nM peptide.

The target of experiment [3] is T2, recombinant human B-cell lymphoma …. The experiment is described as follows: fluorescence displacement assay: emission of the His-Bcl-2-compound 5 sensor complex (200 nM) after adding 800 nM protein.

For KRRWKKNFIAVSAANRFKKISSSGAL (peptide, UniProt P07313 578-603, looked up, check before use), the Kd in experiment [1] was determined as 8.8 nM. Moreover, the binding result in experiment [2] is reported as “no binding (tested: 800 nM)”.

B1: GST-P1 (enzyme, human, UniProt P09211 1-210, looked up)
GST-P1 subunit: MPPYTVVYFPVRGRCAALRMLLADQGQSWKEEVVTVETWQEGSLKASCLYGQLPKFQDGDLTLYQSNTILRHLGRTLGLYGKDQQEAALVDMVNDGVEDLRCKYISLIYTNYEAGKDDYVKALPGQLKPFETLLSQNQGGKTFIVGDQISFADYNLLDLLLIHEVLAPGCLDAFPLLSAYVGRLSARPKLKAFLASPEYVNLPINGNGKQ
notes: recombinant; also called human recombinant GST-P1-1
With B1, in experiment [3], the binding result is “no binding (tested: 800 nM)”.

As a reminder, the Kd is the concentration at which binding is half-saturated.
